In assay [1] the target is M1.HpyAVI, DNA N6-adenine methyltransferase from Helicobacter pylori 26695 (Helicobacter pylori 26695). Nature of the assay: SEC; Superdex 75 10/300 column on FPLC, 0.05, 0.1, 0.2, 0.5 mg/ml protein loaded; calibrated with gel filtration calibration kit LMW. For orientation: In gel filtration, larger molecules generally elute earlier.
Assay [2] has the same target. The assay can be described thus: crystal structure; cofactor-free (3.0 Å, four monomers in the asymmetric unit) and AdoMet-bound (3.1 Å, eight monomers) crystals; dimer with the two monomers related by a two-fold axis; interface analysed with PDBePISA.

In article PMC5173035 one finds stoichiometry N data, which are given here for 1 substance.

As usually defined, the stoichiometry N is a count of units in the complex or per binding partner. As to “M1.HpyAVI, DNA N6-adenine methyltransferase from Helicobacter pylori 26695 (enzyme)”, the stoichiometry N in assay [1] and in assay [2] was 2 in each case.
